As a reminder, the Kd is the concentration at which binding is half-saturated.

This experiment deals with Lag3 (lymphocyte-activation gene 3), on transfected SH-SY5Y cells (not stated (human or mouse cDNA cloned)) (UniProt Q61790). The experiment in a line: cell surface binding assay (streptavidin-alkaline phosphatase staining); SH-SY5Y cells transfected with Lag3 or its deletion mutants; biotin-labelled ligand at different concentrations (monomer equivalent) in DMEM with 10% FBS, 2 h at RT; washed, fixed, bound biotin detected with streptavidin-AP and BCIP/NBT; intensity by ImageJ, KD by GraphPad Prism.
Lag3 (lymphocyte-activation gene 3), on transfected SH-SY5Y cells (not stated (human or mouse cDNA cloned)), sequence (Q61790 24-521): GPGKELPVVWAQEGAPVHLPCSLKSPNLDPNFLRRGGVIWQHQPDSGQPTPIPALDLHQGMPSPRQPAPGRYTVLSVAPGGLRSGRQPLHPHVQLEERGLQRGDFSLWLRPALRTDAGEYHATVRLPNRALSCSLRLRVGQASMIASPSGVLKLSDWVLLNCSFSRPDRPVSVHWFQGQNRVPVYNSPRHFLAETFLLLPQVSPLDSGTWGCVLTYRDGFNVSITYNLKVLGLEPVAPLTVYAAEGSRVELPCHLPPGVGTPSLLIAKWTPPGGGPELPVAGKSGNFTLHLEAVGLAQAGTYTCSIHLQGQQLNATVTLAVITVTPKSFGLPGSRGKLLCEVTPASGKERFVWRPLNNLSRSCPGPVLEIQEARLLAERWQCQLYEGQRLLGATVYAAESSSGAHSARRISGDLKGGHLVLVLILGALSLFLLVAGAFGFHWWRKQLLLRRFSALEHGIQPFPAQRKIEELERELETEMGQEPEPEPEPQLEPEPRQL

Consider “Tau PFF derived from PSP (progressive supranuclear palsy) seeds”, for which the Kd turned out to be 227 nM.

These data come from PMC11040377.
